According to patent US20020076693A1 (published 2002):

Target: T1, recombinant soluble CD4 (UniProt P01730 26-396)
T1 construct: domain: soluble form of recombinant CD4
Experiment: BIAcore, soluble CD4; row shifted one column to the left

B1: recombinant gp120 of HIV-1 SF2 (ligand)
chain: not shown
notes: domain: gp120; also called gp120 HIV-1 SF2; gp120-SF2
Ka: 2.1e+08 M⁻¹
koff: 0.0056 s⁻¹
kon: 1.15e+06 M⁻¹ s⁻¹
